From article PMC6050537, “Inhibition of low-density lipoprotein receptor degradation with a cyclic peptide that disrupts the homodimerization of IDOL E3 ubiquitin ligase” (Chemical Science, 2018) come the findings set out here.

Assay [1] has as its target T1, Full length IDOL (1–445), Q8WY64.
T1 chain: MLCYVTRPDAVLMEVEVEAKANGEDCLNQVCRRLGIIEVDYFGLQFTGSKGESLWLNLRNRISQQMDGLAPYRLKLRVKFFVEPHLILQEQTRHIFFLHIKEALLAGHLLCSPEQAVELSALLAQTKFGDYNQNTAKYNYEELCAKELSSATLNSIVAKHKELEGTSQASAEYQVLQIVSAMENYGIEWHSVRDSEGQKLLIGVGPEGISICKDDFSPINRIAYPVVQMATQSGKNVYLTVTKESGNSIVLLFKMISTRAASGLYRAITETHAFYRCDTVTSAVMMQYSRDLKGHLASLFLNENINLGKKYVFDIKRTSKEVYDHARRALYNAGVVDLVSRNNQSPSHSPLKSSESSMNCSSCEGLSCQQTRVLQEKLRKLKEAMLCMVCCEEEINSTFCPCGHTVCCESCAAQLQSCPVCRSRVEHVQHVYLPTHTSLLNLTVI
The assay is described as follows: MST. The following applies: modification not given; NT-647-NHS dye (only the labelled copy in the MST assays).

Assay [2] has as its target Full length IDOL (1–445) (UniProt Q8WY64). The assay is described as follows: SPR; Biacore S200; 6× His-tagged full-length IDOL immobilized on an NTA chip (~6000 RU), peptides as analytes; 10 mM HEPES, 300 mM NaCl, 1 mM TCEP, 0.05% Tween 20, 4% DMSO, pH 8.0; saturation at the highest concentrations not observed. On the technique in general: Surface plasmon resonance follows binding to a sensor surface in real time, without labels.

Assay [3] shares this target. The assay is described as follows: MST; Monolith NT.115; 6× His IDOL labelled with NT-647-NHS dye at 50 nM, peptides titrated; 10 mM HEPES, 300 mM NaCl, 1 mM TCEP, 0.05% TWEEN-20, pH 8.0, 5% DMSO.

Non-standard residues stand in square brackets, D forms with d. Phe(4-NO2) = N[C@@H](Cc1ccc([N+](=O)[O-])cc1)C(=O)O; Phe(4-CN) = N#Cc1ccc(C[C@H](N)C(=O)O)cc1; Phe(4-Cl) = N[C@@H](Cc1ccc(Cl)cc1)C(=O)O; Phe(4-F) = N[C@@H](Cc1ccc(F)cc1)C(=O)O; Phe(4-Me) = Cc1ccc(C[C@H](N)C(=O)O)cc1; hPhe = N[C@@H](CCc1ccccc1)C(=O)O

With cyclo(CF[Phe(4-Cl)]LYT) (not fully specified) [RINGPep1 derivative with 4-chloro-phenylalanine at position 3], the Kd (commonly the free concentration of one partner at which half of the binding sites on the other are occupied at equilibrium, for simple one-to-one binding) in assay [1] was determined as 12 µM. In other words, the double-digit micromolar range. The same measure, in the same setting: the value for cyclo(CF[Phe(4-CN)]LYT) (not fully specified) [RINGPep1 derivative with 4-cyano-phenylalanine at position 3] was 36.2 µM. CTIFLL (cyclic backbone (cyclo-)) [cyclo-CTIFLL]: the Kd in the assay with Full length IDOL (1–445) [2] was 20.9 µM. In assay [1], cyclo(CF[Phe(4-NO2)]LYT) (not fully specified) [RINGPep1 derivative with 4-nitro-phenylalanine at position 3] returned a Kd of 35.7 µM. cyclo(CF[Phe(4-Me)]LYT) (not fully specified) [RINGPep1 derivative with 4-methy-phenylalanine at position 3] displayed a Kd in assay [1] of 23.1 µM. On the same count and under the same terms, with cyclo(CF[Phe(4-F)]LYT) (not fully specified) [RINGPep1 derivative with 4-fluoro-phenylalanine at position 3] the figure was 35.2 µM; with cyclo(CF[hPhe]LYT) (not fully specified) [RINGPep1 derivative with homo-phenylalanine at position 3], 23.6 µM. As for CFFLYT (cyclic backbone (cyclo-)) [cyclo-CFFLYT], the Kd in the assay with Full length IDOL (1–445) [3] and with Full length IDOL (1–445) [2] was 38.5 µM in each case.
